Measurements as given in patent US20110207116A1 (University of California, published 2011).

T1: PhyB(1-650)-10aaLinker-mCherry-Kras4BCT (Arabidopsis thaliana, UniProt P14713 1-650, phycocyanobilin (PCB) chromophore covalently bound; C-terminal CaaX prenylation sequence)
T1 construct: Expressed in NIH3T3 cells at the plasma membrane; also called pAL117; PhyB-NT; not shown: mCherry fluorescent protein, amplified from a vector
T1 sequence: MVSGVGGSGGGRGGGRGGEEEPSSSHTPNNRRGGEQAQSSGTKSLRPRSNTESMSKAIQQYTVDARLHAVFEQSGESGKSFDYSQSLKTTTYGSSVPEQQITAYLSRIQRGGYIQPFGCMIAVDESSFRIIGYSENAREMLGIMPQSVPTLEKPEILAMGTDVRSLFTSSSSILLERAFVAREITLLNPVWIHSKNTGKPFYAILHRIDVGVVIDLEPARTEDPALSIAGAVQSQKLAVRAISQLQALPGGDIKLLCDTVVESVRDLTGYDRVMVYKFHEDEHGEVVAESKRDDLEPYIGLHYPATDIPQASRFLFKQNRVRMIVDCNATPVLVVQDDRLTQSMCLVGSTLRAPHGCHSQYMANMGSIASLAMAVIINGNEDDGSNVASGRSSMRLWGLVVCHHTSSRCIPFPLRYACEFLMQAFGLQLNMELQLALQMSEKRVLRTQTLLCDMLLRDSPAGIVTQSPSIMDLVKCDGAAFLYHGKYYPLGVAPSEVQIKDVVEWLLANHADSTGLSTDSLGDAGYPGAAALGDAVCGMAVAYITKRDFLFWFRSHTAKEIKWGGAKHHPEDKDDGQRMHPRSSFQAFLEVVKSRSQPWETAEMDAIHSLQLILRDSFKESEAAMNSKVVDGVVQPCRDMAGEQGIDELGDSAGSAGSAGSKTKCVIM

T2: PhyB(1-450)-10aaLinker-mCherry-Kras4BCT (Arabidopsis thaliana, UniProt P14713 1-450, phycocyanobilin (PCB) chromophore covalently bound; C-terminal CaaX prenylation sequence)
T2 construct: Expressed in NIH3T3 cells at the plasma membrane; also called pAL161; PhyB-CBD; not shown: mCherry fluorescent protein, amplified from a vector
T2 sequence: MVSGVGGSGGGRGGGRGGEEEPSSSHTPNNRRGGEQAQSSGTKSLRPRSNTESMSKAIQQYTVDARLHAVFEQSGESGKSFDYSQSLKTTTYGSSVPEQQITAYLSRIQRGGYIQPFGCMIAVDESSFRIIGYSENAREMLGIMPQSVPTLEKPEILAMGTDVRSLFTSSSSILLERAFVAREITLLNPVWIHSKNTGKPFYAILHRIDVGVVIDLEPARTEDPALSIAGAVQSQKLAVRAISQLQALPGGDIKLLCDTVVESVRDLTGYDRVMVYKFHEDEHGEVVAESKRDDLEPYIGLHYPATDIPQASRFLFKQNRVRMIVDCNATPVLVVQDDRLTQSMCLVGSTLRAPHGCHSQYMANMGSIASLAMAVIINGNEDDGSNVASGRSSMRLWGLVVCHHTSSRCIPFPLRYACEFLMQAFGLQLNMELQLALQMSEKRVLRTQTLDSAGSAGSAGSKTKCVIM

T3: PhyBFL-10aaLinker-mCherry-Kras4BCT (Arabidopsis thaliana, UniProt P14713 1-1172, phycocyanobilin (PCB) chromophore covalently bound; C-terminal CaaX prenylation sequence)
T3 construct: also called pAL162; PhyB full length; not shown: mCherry fluorescent protein, amplified from a vector
T3 sequence: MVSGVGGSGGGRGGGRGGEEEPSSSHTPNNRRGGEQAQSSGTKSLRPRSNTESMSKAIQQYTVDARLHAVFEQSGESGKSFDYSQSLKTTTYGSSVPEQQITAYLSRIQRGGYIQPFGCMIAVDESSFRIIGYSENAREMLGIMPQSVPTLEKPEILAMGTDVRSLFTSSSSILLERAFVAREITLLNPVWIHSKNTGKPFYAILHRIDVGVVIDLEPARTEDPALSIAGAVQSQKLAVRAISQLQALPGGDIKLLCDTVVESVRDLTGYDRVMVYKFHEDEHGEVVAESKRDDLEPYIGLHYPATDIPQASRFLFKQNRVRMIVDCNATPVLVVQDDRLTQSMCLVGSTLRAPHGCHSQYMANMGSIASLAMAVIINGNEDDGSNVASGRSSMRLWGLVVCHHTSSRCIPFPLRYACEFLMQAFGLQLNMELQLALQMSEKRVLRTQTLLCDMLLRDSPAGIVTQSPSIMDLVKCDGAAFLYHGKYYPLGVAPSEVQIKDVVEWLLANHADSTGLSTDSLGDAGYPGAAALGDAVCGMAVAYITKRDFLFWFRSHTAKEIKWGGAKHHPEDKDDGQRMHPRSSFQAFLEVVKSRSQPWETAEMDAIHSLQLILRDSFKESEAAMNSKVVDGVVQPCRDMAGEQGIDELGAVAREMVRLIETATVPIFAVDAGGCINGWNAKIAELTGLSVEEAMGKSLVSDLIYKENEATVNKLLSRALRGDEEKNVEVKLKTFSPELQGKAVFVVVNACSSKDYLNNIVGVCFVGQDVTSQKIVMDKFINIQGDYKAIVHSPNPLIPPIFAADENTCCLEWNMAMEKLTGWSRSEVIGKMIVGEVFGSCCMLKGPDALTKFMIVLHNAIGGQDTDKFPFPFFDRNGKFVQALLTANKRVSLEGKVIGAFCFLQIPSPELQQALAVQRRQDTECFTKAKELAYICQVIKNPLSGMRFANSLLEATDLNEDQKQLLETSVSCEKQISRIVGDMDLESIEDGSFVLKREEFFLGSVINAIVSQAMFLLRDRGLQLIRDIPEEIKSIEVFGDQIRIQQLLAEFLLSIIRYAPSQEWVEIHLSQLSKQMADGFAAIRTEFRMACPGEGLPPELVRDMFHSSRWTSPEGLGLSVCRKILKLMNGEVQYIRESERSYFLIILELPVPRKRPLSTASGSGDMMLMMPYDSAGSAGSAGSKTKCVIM

B1: PhyB(1-908)-10aaLinker-mCherry-Kras4BCT (other)
chain: MVSGVGGSGGGRGGGRGGEEEPSSSHTPNNRRGGEQAQSSGTKSLRPRSNTESMSKAIQQYTVDARLHAVFEQSGESGKSFDYSQSLKTTTYGSSVPEQQITAYLSRIQRGGYIQPFGCMIAVDESSFRIIGYSENAREMLGIMPQSVPTLEKPEILAMGTDVRSLFTSSSSILLERAFVAREITLLNPVWIHSKNTGKPFYAILHRIDVGVVIDLEPARTEDPALSIAGAVQSQKLAVRAISQLQALPGGDIKLLCDTVVESVRDLTGYDRVMVYKFHEDEHGEVVAESKRDDLEPYIGLHYPATDIPQASRFLFKQNRVRMIVDCNATPVLVVQDDRLTQSMCLVGSTLRAPHGCHSQYMANMGSIASLAMAVIINGNEDDGSNVASGRSSMRLWGLVVCHHTSSRCIPFPLRYACEFLMQAFGLQLNMELQLALQMSEKRVLRTQTLLCDMLLRDSPAGIVTQSPSIMDLVKCDGAAFLYHGKYYPLGVAPSEVQIKDVVEWLLANHADSTGLSTDSLGDAGYPGAAALGDAVCGMAVAYITKRDFLFWFRSHTAKEIKWGGAKHHPEDKDDGQRMHPRSSFQAFLEVVKSRSQPWETAEMDAIHSLQLILRDSFKESEAAMNSKVVDGVVQPCRDMAGEQGIDELGAVAREMVRLIETATVPIFAVDAGGCINGWNAKIAELTGLSVEEAMGKSLVSDLIYKENEATVNKLLSRALRGDEEKNVEVKLKTFSPELQGKAVFVVVNACSSKDYLNNIVGVCFVGQDVTSQKIVMDKFINIQGDYKAIVHSPNPLIPPIFAADENTCCLEWNMAMEKLTGWSRSEVIGKMIVGEVFGSCCMLKGPDALTKFMIVLHNAIGGQDTDKFPFPFFDRNGKFVQALLTANKRVSLEGKVIGAFCFLQIPSDSAGSAGSAGSKTKCVIM
modifications: phycocyanobilin (PCB) chromophore covalently bound; C-terminal CaaX prenylation sequence
notes: Expressed in NIH3T3 cells, localized to the plasma membrane; also called pAL149; PhyB908; not shown: mCherry fluorescent protein, amplified from a vector

Tests used:
[1] = biological target: B1; assay: YFP membrane translocation in NIH3T3 cells, confocal microscopy
[2] = biological target: T1, PhyB(1-650)-10aaLinker-mCherry-Kras4BCT; assay: as above
[3] = biological target: T2, PhyB(1-450)-10aaLinker-mCherry-Kras4BCT; assay: as above
[4] = biological target: T4, PhyB(1-650)-Gal4DD-10aaLinker-mCherry-Kras4BCT (Arabidopsis thaliana; Saccharomyces …, UniProt P04386 50-106, phycocyanobilin (PCB) chromophore covalently bound; C-terminal CaaX prenylation sequence); assay: as above
T4 construct: also called pAL148; not shown: mCherry fluorescent protein, amplified from a vector

[5] = biological target: T3, PhyBFL-10aaLinker-mCherry-Kras4BCT; assay: as above
[6] = biological target: T5, PIF6APB-mYFP-20aaLinker-Rac1(Q61L)ΔCT (Arabidopsis thaliana, UniProt P63000 1-188); assay: global light-activated membrane translocation in NIH3T3 cells, red light
T5 construct: also called pAL105; Rac1(Q61L, no caax); not shown: mYFP: EYFP with monomerizing A206K mutation

binding result [1] | binding result [2] | binding result [3] | binding result [4] | binding result [5] | binding result [6] | Binder
no binding | no binding | no binding | no binding | no binding | – | PIF3APB-mYFP (other, also called pAL100; PIF3-100NT; not shown: mYFP: EYFP with monomerizing A206K mutation) MPLFELFRLTKAKLESAQDRNPSPPVDEVVELVWENGQISTQSQSSRSRNIPPPQANSSRAREIGNGSKTTMVDEIPMSVPSLMTGLSQDDDFVPWLNHH
– | – | – | – | – | binds | B1
